Measured values published in patent publication US20260216328A1, “DISRUPTABLE LINKER COMPOSITIONS, SWITCHABLE BISPECIFIC T CELL NANOENGAGER (SWITCH-BITE) COMPOSITIONS COMPRISING THE SAME, AND METHODS OF USE THEREOF” (The Trustees of the University of Pennsylvania, priority 2023, published 2026).

Assays:
[1] = Half-life and biodistribution of Blinatumomab and CD3/CD19 SiTE; assay type: in vivo, mouse
Description: FIGS. 17A-17F: half-life and in vivo biodistribution of Blinatumomab. FIGS. 17A-17B: Blinatumomab was labeled with Cy7 and was i.v. injected to healthy untreated mice. 10 μL of blood at 0, 1, 2, 4, 6, 12, 24, 36 and 48 h was collected and imaged using IVIS. The fluorescence signal at different time points were quantified (FIG. 17B). FIG. 17C: the biodistribution of Blinatumomab in healthy mice was also investigated 24 h after Blinatumomab-Cy7 injection. FIG. 17D: In order to mimic a clinical patient treatment, a mouse model was constructed with CD19 expression in the liver and a subcutaneous B-cell lymphoma model. Blinatumomab-Cy7 was i.v. injected at 0 h. The mice were euthanized at 24 h and the distribution of Blinatumomab-Cy7 in major organs and tumour was evaluated. The Blinatumomab-Cy7 mainly accumulates in the liver, spleen and tumour. The distribution of SiTE that targets human CD3 and human CD19 antigen was evaluated in both healthy untreated mice (FIG. 17E) and in a mouse model with CD19 expression in the liver and has a subcutaneous B-cell lymphoma tumour (FIG. 17F), similar results were obtained.
Encouraged by the results from the in vitro experiments, the controllable activity of SiTE was evaluated in vivo. […] It was also analyzed if the biodistribution of SiTE both in healthy NSG mice and in Raji tumour-bearing humanized NSG mice that express CD19 antigen in the liver. […]

[2] = tested on: Raji-Luc-GFP tumour cells; assay: Cytokine release syndrome in humanized NSG-SGM3 mice with Raji-Luc-GFP tumour; assay type: in vivo, mouse
Description: An in vivo imaging system (IVIS) was used to monitor tumour burden in vivo. […] FIGS. 41C-41E: Mouse body weight, temperature and survival curves, respectively. n=10 mice. […] The data in FIGS. 41C-41D and FIGS. 41F-41J were plotted as mean±s.d. (n=10) from three independent experiments. […] P value in FIG. 41E was determined using Log-rank (Mantel-Cox) test.
SiTE and Blinatumomab were also compared with regard to treating symptoms of CRS and neurotoxicity. The humanized mouse model was constructed as before, but this time the piggybac transposon system was not used to express CD19 in the mouse livers. This allowed better analysis of the effects of the SiTE on CRS and neurotoxicity (FIG. 41A). Raji-Luc-GFP cells were i.v. injected at day −14. Blinatumomab, SiTE or PBS were i.v. injected to the mice at day one. Mouse tumour burden, body weight, temperature, and plasma cytokine levels were monitored (FIGS. 41B-41J).

[3] = tested on: Raji-Luc-GFP cells; assay: Antitumour efficacy in normal NSG mice with Raji-Luc-GFP tumour; assay type: in vivo, mouse; conditions: days 1, 3, 5
Text: FIGS. 43A-43C: comparison of the antitumour efficacy of SITE and Blinatumomab. In order to solely compare the antitumour capacity of Blinatumomab and the SiTE, CD19 antigen was not expressed in mouse liver so BiTNE or SiTE treatment will not induce on-target, off-tumour toxicity. Additionally, normal NSG mice (without humanization) were used to construct the tumour model so the mice will not develop CRS. FIG. 43A: Raji-Luc-GFP cells were i.v. injected to mice at day −14. Tumour bearing mice were treated with Blinatumomab or SiTE at days 1, 3, or 5. FIG. 43B: mice were imaged using IVIS at days 0, 5, 9, and 13 to monitor the tumour burden level. c, Quantification of the luminescence levels in FIG. 43B. The data in FIG. 43C were plotted as mean s.d. (n=5) f. P value in FIG. 43C was determined using one-way ANOVA.
In order to specifically assess the antitumour efficacy of Blinatumomab and the SiTE, expression of the CD19 antigen in the mouse liver was refrained from. By employing this approach, it was ensured that treatment with either Blinatumomab or SiTE would not elicit on-target, off-tumour toxicity. To further avoid the effect of CRS on the evaluation of the therapeutic outcome of Blinatumomab and SiTE, normal NSG mice were employed, devoid of humanization.

[4] = tested on: Raji-Luc-GFP tumour cells; assay: Blinatumomab vaccine effect and CRS after discontinuation; assay type: in vivo, mouse
Description: Raji tumour cells and human T cells were co-cultured in serum-free medium and were treated with Blinatumomab for 24 h. After that, the cell culture medium was collected and the proteins in the medium were analyzed using proteomics. FIG. 44A: Large amount of damage associated molecule patterns (DAMPs); and FIG. 44B: tumour associated antigens were detected in the cell culture medium. FIG. 44C: Raji tumour bearing humanized NSG mice were treated with three doses of Blinatumomab. […] Then, Raji-Luc-GFP cell viability was determined. […] The data in FIG. 44C are presented as mean±s.d. (n=5) f. P value in FIG. 44C was determined using one-way ANOVA.
FIGS. 45A-45C: CRS symptoms cannot be stopped by simply stop the administration of Blinatumomab. FIG. 45A: humanized NSG mice were i.v. injected with Raji-Luc-GFP cells on day −14. Then Blinatumomab were administrated at days 1, 3, or 5. FIG. 45B: IL-6 level in mouse blood were monitored. FIG. 45C: survival curve.
It was also investigated if Blinatumomab could also induce a vaccine effect. […] It was also questioned whether CRS could be halted by simply discontinuing the administration of Blinatumomab, owing to its inherent short half-life. […] The pronounced targeting of T cells and CD19-expressing cells, coupled with heightened activation of many immune cells, served to amplify the cytokine cascade, rendering it impervious to interruption by the mere discontinuation of Blinatumomab usage. These findings underscore the critical exigency for the development of an alternative to Blinatumomab, one that can be switched off as needed, in this rapidly evolving research field.

[5] = mouse, in vivo; cited from earlier work
[6] = tested on: Raji-Luc-GFP tumour cells; assay: Humanized immune system mice with liver CD19 and Raji-Luc-GFP tumour; conditions: SiTE targets human CD3/CD19
[7] = tested on: Raji-Luc-GFP tumour cells; conditions: around day 33, after SiTE
Description: FIG. 42A: NSG-SGM3 mice were treated with Busulfan at day −50 to remove mouse bone marrow. At day −49, 10^5 human CD34^+ fetal liver cells were i.v. injected to let the mouse develop a human immune system. 10^6 Raji-Luc-GFP tumour cells were i.v. injected at day −14. At days 1, 3, and 5, PBS or SiTE was i.v. injected (in the PBS group, only PBS was injected to tumour-bearing mice). […] FIGS. 42B-42E: mouse body weight, temperature, IL-6 levels, and mouse survival curves, respectively. n=10 mice. The red stars in FIG. 42B indicate that mice were euthanized. FIG. 42F: measurements of IL-1 in mouse blood at different time points. n=10 mice. […] Brain H&E staining (FIG. 42I) and human CD68 immunohistochemistry (FIG. 42J) images of mice at day 35. The data in FIGS. 42B-42F were plotted as mean z s.d. (n=10) from three independent experiments.
It was also evaluated if the SiTE can help control neurotoxicity. In the clinic, neurotoxicity is usually delayed and occurs several […] after CRS onset. Tumour-bearing mice were treated with SiTE at days 1, 3 and 5 (FIG. 42A). […] Rather than use a preventative strategy for treating CRS (FIGS. 40A-40M), here Tocilizumab was used to treat CRS when symptoms presented, so that it can be compared directly with the SiTE strategy. […] Studies have shown that IL-1 is the major cause of neurotoxicity.

| Substance | biodistribution ([1]; Raji tumour-bearing humanized mice expressing human CD19 in the liver) | biodistribution ([1]; healthy mice with a humanized immune system, i.v.) | fever and body weight ([2]; 5 mg/kg, days 1, 3, 5, SiTE targets human CD3/CD19) | plasma IL-6, IFN-γ, TNF-α, CXCL10 and CCL3 concentrations ([2]; after treatment) | tumour growth [3] | release of DAMPs and tumour antigens from tumour cells ([4]; high dose, Raji cells and human T cells, 24 h) | tumour cell killing by T cells from treated mice ([4]; high dose, vs T cells from PBS-treated mice) | serum IL-6 ([4]; humanized NSG mice, persisted after cessation) | half-life [5] [h] | tumour cell killing (IVIS) ([6]; 5 mg/kg i.v. x3, Tocilizumab pre-treatment) | on-target, off-tumour toxicity and CRS ([6]; 5 mg/kg i.v. x3) | signs of lethal neurological syndrome [7] |
| --- | --- | --- | --- | --- | --- | --- | --- | --- | --- | --- | --- | --- |
| Blinatumomab: first BiTE to receive FDA approval; links CD3-positive T cells to CD19-expressing B cell cancers | high accumulation of Blinatumomab in the tumours, livers, and spleens | accumulated greatly in the spleens | induced high fever and body weight loss | greatly increased | substantial suppression of tumour growth | substantial release of DAMPs and tumour antigens | substantial tumour cell killing | notable elevation of IL-6 levels | 2.11 | induced effective tumour cell killing | not only induced on-target, off-tumour toxicity in the liver, but led to strong CRS | – |
| Tocilizumab: commercialized drug for CRS treatment; antibody for the IL-6 receptor | – | – | – | – | – | – | – | – | – | – | – | developed sudden paralysis |
